{
  "source": "the RNAGym collection of RNA variant scans (doi:10.1101/gr.219683.116)",
  "parents": {"B1": {"name": "mRNA-splicing (parent)", "chain": "AGUUGCUGCUGGGAGCUCCAGCACAGUGAAAUGGACAGAAGGGCAGAGCAA"}},
  "data": [
    {"variants_of": "B1", "assay": "exon inclusion enrichment index; higher = more inclusion; WT1 exon 5 minigene, HEK293", "values": [
      {"variant": "AGUUAUAUAUGGGAGCUCCAGCACAGUUAAAUGGACAGAAGGGCAGAGCAA", "note": "[G5A C6U U7A G8U C9A G28U]", "exon inclusion enrichment index": 0.0124},
      {"variant": "AGUUAUAUAUGGGAGCUCCAGCACAGUGAAAUGCACAGAAGGGCAGAGCAA", "note": "[G5A C6U U7A G8U C9A G34C]", "exon inclusion enrichment index": 0.0129},
      {"variant": "AGUUAUAUAUGGGAGCUCCAGCACAGUGAAAUGAACAGAAGGGCAGAGCAA", "note": "[G5A C6U U7A G8U C9A G34A]", "exon inclusion enrichment index": 0.0272},
      {"variant": "AGUUAUAUAUGGGAGCUCCAGCACAGUGAAAUGUACAGAAGGGCAGAGCAA", "note": "[G5A C6U U7A G8U C9A G34U]", "exon inclusion enrichment index": 0.00388},
      {"variant": "AGUUAUAUAUGGGAGCUCCAGCACAGUGAAAUGGACAGAAGGGCAAAGCAA", "note": "[G5A C6U U7A G8U C9A G46A]", "exon inclusion enrichment index": 0.0879},
      {"variant": "AGUUAUAUAUGGGAGCUCCAGCACAGUUUAAUGGACAGAAGGGCAGAGCAA", "note": "[G5A C6U U7A G8U C9A G28U A29U]", "exon inclusion enrichment index": 0.00744},
      {"variant": "AGUUAUAUAUGGGAGCUCCAGCACAGUUGAAUGGACAGAAGGGCAGAGCAA", "note": "[G5A C6U U7A G8U C9A G28U A29G]", "exon inclusion enrichment index": 0.0696},
      {"variant": "AGUUAUAUAUGGGAGCUCCAGCACAGUUCAAUGGACAGAAGGGCAGAGCAA", "note": "[G5A C6U U7A G8U C9A G28U A29C]", "exon inclusion enrichment index": 0.0467},
      {"variant": "AGUUAUAUAUGGGAGCUCCAGCACAGUGAAAUGGACAGAAGUGCAGAGCAA", "note": "[G5A C6U U7A G8U C9A G42U]", "exon inclusion enrichment index": 0.107},
      {"variant": "AGUUAUAUAUGGGAGCUCCAGCACAGUGAAAUGGACAGAAGCGCAGAGCAA", "note": "[G5A C6U U7A G8U C9A G42C]", "exon inclusion enrichment index": 0.399},
      {"variant": "AGUUAUAUAUGGGAGCUCCAGCACAGUGAAAUGGACAGAAGAGCAGAGCAA", "note": "[G5A C6U U7A G8U C9A G42A]", "exon inclusion enrichment index": 0.446},
      {"variant": "AGUUAUAUAUGGGAGCUCCAGCACAGUGAAAUAAACAGAAGGGCAGAGCAA", "note": "[G5A C6U U7A G8U C9A G33A G34A]", "exon inclusion enrichment index": 0.0009},
      {"variant": "AGUUAUAUAUGGGAGCUCCAGCACAGUGAAAUACACAGAAGGGCAGAGCAA", "note": "[G5A C6U U7A G8U C9A G33A G34C]", "exon inclusion enrichment index": 0.0195},
      {"variant": "AGUUAUAUAUGGGAGCUCCAGCACAGUGAAAUAUACAGAAGGGCAGAGCAA", "note": "[G5A C6U U7A G8U C9A G33A G34U]", "exon inclusion enrichment index": 0.0125},
      {"variant": "AGUUAUAUAUGGGAGCUCCAGCACAGUGAAAUGGACAGAAGGAUAGAGCAA", "note": "[G5A C6U U7A G8U C9A G43A C44U]", "exon inclusion enrichment index": 0.072},
      {"variant": "AGUUAUAUAUGGGAGCUCCAGCACAGUGAAAUGGACAGAAGGAGAGAGCAA", "note": "[G5A C6U U7A G8U C9A G43A C44G]", "exon inclusion enrichment index": 0.476},
      {"variant": "AGUUAUAUAUGGGAGCUCCAGCACAGUGAAAUGGACAGAAGGAAAGAGCAA", "note": "[G5A C6U U7A G8U C9A G43A C44A]", "exon inclusion enrichment index": 0.441},
      {"variant": "AGUUAUAUAUGGGAGCUCCAGCACAGUGAAAUGUUCAGAAGGGCAGAGCAA", "note": "[G5A C6U U7A G8U C9A G34U A35U]", "exon inclusion enrichment index": 0.007},
      {"variant": "AGUUAUAUAUGGGAGCUCCAGCACAGUGAAAUGUCCAGAAGGGCAGAGCAA", "note": "[G5A C6U U7A G8U C9A G34U A35C]", "exon inclusion enrichment index": 0.0139},
      {"variant": "AGUUAUAUAUGGGAGCUCCAGCACAGUGAAAUGUGCAGAAGGGCAGAGCAA", "note": "[G5A C6U U7A G8U C9A G34U A35G]", "exon inclusion enrichment index": 0.014},
      {"variant": "AGUUAUAUAUGGGAGCUCCAGCACAGUGAAAUGGACAGAACAGCAGAGCAA", "note": "[G5A C6U U7A G8U C9A G41C G42A]", "exon inclusion enrichment index": 0.139},
      {"variant": "AGUUAUAUAUGGGAGCUCCAGCACAGUGAAAUGGACAGAACCGCAGAGCAA", "note": "[G5A C6U U7A G8U C9A G41C G42C]", "exon inclusion enrichment index": 0.417},
      {"variant": "AGUUAUAUAUGGGAGCUCCAGCACAGUGAAAUGGACAGAACUGCAGAGCAA", "note": "[G5A C6U U7A G8U C9A G41C G42U]", "exon inclusion enrichment index": 0.445},
      {"variant": "AGUUAUAUAUGGGAGCUCCAGCACAGUGAAAUUGACAGAAGGGCAGAGCAA", "note": "[G5A C6U U7A G8U C9A G33U]", "exon inclusion enrichment index": 0.00963},
      {"variant": "AGUUAUAUAUGGGAGCUCCAGCACAGUGAAAUAGACAGAAGGGCAGAGCAA", "note": "[G5A C6U U7A G8U C9A G33A]", "exon inclusion enrichment index": 0.00613},
      {"variant": "AGUUAUAUAUGGGAGCUCCAGCACAGUGAAAUCGACAGAAGGGCAGAGCAA", "note": "[G5A C6U U7A G8U C9A G33C]", "exon inclusion enrichment index": 0.108},
      {"variant": "AGUUAUAUAUGGGAGCUCCAGCACAAGGAAAUGGACAGAAGGGCAGAGCAA", "note": "[G5A C6U U7A G8U C9A G26A U27G]", "exon inclusion enrichment index": 0.168},
      {"variant": "AGUUAUAUAUGGGAGCUCCAGCACAACGAAAUGGACAGAAGGGCAGAGCAA", "note": "[G5A C6U U7A G8U C9A G26A U27C]", "exon inclusion enrichment index": 0.504},
      {"variant": "AGUUAUAUAUGGGAGCUCCAGCACAAAGAAAUGGACAGAAGGGCAGAGCAA", "note": "[G5A C6U U7A G8U C9A G26A U27A]", "exon inclusion enrichment index": 0.122},
      {"variant": "AGUUAUAUAUGGGAGCUCCAGCACAGUGAAAUGGACAGAAUGGCAGAGCAA", "note": "[G5A C6U U7A G8U C9A G41U]", "exon inclusion enrichment index": 0.077},
      {"variant": "AGUUAUAUAUGGGAGCUCCAGCACAGUGAAAUGGACAGAACGGCAGAGCAA", "note": "[G5A C6U U7A G8U C9A G41C]", "exon inclusion enrichment index": 0.435},
      {"variant": "AGUUAUAUAUGGGAGCUCCAGCACAGUGAAAUGGACAGAAAGGCAGAGCAA", "note": "[G5A C6U U7A G8U C9A G41A]", "exon inclusion enrichment index": 0.0374},
      {"variant": "AGUUAUAUAUGGGAGCUCCAGCACAGUGAAAUGGACAAUAGGGCAGAGCAA", "note": "[G5A C6U U7A G8U C9A G38A A39U]", "exon inclusion enrichment index": 0.00385},
      {"variant": "AGUUAUAUAUGGGAGCUCCAGCACAGUGAAAUGGACAAGAGGGCAGAGCAA", "note": "[G5A C6U U7A G8U C9A G38A A39G]", "exon inclusion enrichment index": 0.0704},
      {"variant": "AGUUAUAUAUGGGAGCUCCAGCACAGUGAAAUGGACAACAGGGCAGAGCAA", "note": "[G5A C6U U7A G8U C9A G38A A39C]", "exon inclusion enrichment index": 0.0573},
      {"variant": "AGUUAUAUAUGGGAGCUCCAGCACAGUGAAAUGGACAGAAGACCAGAGCAA", "note": "[G5A C6U U7A G8U C9A G42A G43C]", "exon inclusion enrichment index": 1.53},
      {"variant": "AGUUAUAUAUGGGAGCUCCAGCACAGUGAAAUGGACAGAAGAACAGAGCAA", "note": "[G5A C6U U7A G8U C9A G42A G43A]", "exon inclusion enrichment index": 1.16},
      {"variant": "AGUUAUAUAUGGGAGCUCCAGCACAGUGAAAUGGACAGAAGAUCAGAGCAA", "note": "[G5A C6U U7A G8U C9A G42A G43U]", "exon inclusion enrichment index": 1.03},
      {"variant": "AGUUAUAUAUGGGAGCUCCAGCACAAUGAAAUGGACAGAAGGGCAGAGCAA", "note": "[G5A C6U U7A G8U C9A G26A]", "exon inclusion enrichment index": 0.141},
      {"variant": "AGUUAUAUAUGGGAGCUCCAGCACACUGAAAUGGACAGAAGGGCAGAGCAA", "note": "[G5A C6U U7A G8U C9A G26C]", "exon inclusion enrichment index": 0.142},
      {"variant": "AGUUAUAUAUGGGAGCUCCAGCACAUUGAAAUGGACAGAAGGGCAGAGCAA", "note": "[G5A C6U U7A G8U C9A G26U]", "exon inclusion enrichment index": 0.0898},
      {"variant": "AGUUAUAUAUGGGAGCUCCACUACAGUGAAAUGGACAGAAGGGCAGAGCAA", "note": "[G5A C6U U7A G8U C9A G21C C22U]", "exon inclusion enrichment index": 0.0665},
      {"variant": "AGUUAUAUAUGGGAGCUCCAGCACAGUGAAAUGGACAGAAGGCGAGAGCAA", "note": "[G5A C6U U7A G8U C9A G43C C44G]", "exon inclusion enrichment index": 1.01},
      {"variant": "AGUUAUAUAUGGGAGCUCCAGCACAGUGAAAUGGACAGAAGGCAAGAGCAA", "note": "[G5A C6U U7A G8U C9A G43C C44A]", "exon inclusion enrichment index": 0.403},
      {"variant": "AGUUAUAUAUGGGAGCUCCAGCACAGUGAAAUGGACAGAAGGCUAGAGCAA", "note": "[G5A C6U U7A G8U C9A G43C C44U]", "exon inclusion enrichment index": 0.033},
      {"variant": "AGUUAUAUAUGGGAGCUCCAGCACAGUGAAAUGGACAGAAGGUUAGAGCAA", "note": "[G5A C6U U7A G8U C9A G43U C44U]", "exon inclusion enrichment index": 0.00909},
      {"variant": "AGUUAUAUAUGGGAGCUCCAGCACAGUGAAAUGGACAGAAGGUAAGAGCAA", "note": "[G5A C6U U7A G8U C9A G43U C44A]", "exon inclusion enrichment index": 0.00905},
      {"variant": "AGUUAUAUAUGGGAGCUCCAGCACAGUGAAAUGGACAGAAGGUGAGAGCAA", "note": "[G5A C6U U7A G8U C9A G43U C44G]", "exon inclusion enrichment index": 0.073},
      {"variant": "AGUUAUAUAUGGGAGCUCCAGCACAGUGAAAUGGACAGAAUAGCAGAGCAA", "note": "[G5A C6U U7A G8U C9A G41U G42A]", "exon inclusion enrichment index": 0.0133},
      {"variant": "AGUUAUAUAUGGGAGCUCCAGCACAGUGAAAUGGACAGAAUCGCAGAGCAA", "note": "[G5A C6U U7A G8U C9A G41U G42C]", "exon inclusion enrichment index": 0.226},
      {"variant": "AGUUAUAUAUGGGAGCUCCAGCACAGUGAAAUGGACAGAAUUGCAGAGCAA", "note": "[G5A C6U U7A G8U C9A G41U G42U]", "exon inclusion enrichment index": 0.0785}
    ]}
  ]
}
